# Assays:
# [1] = molecular target: SOAR-F394H, purified protein (UniProt Q13586); test: cross-linking; purified proteins dialysed against PBS, 0.5 mg/ml, disuccinimidyl suberate 0, 0.1 and 1 mM, 30 min, room temperature; SDS-PAGE, Coomassie blue; monomers to dimer
# [2] = molecular target: SOAR-F394H, purified protein (UniProt Q13586); test: SEC; purified SOAR and SOAR-F394H, ~0.5 mg/ml, Superdex-200 16/60, 200 mM NaCl, 20 mM Mes-NaOH pH 6.5, 2.5 ml/min; calibrated with protein standards; monomers to dimer
# [3] = molecular target: SOAR, purified wild-type protein (UniProt Q13586); test: cross-linking; purified proteins dialysed against PBS, 0.5 mg/ml, disuccinimidyl suberate 0, 0.1 and 1 mM, 30 min, room temperature; SDS-PAGE, Coomassie blue; monomers to dimer
# [4] = molecular target: SOAR, purified wild-type protein (UniProt Q13586); test: SEC; purified SOAR and SOAR-F394H, ~0.5 mg/ml, Superdex-200 16/60, 200 mM NaCl, 20 mM Mes-NaOH pH 6.5, 2.5 ml/min; calibrated with protein standards; monomers to dimer
Substance,stoichiometry N [1],stoichiometry N [2],stoichiometry N [3],stoichiometry N [4]
"SOAR-F394H, purified protein (from UniProt Q13586 344-442) (domain or fragment)",2,2,,
"SOAR, purified wild-type protein (from UniProt Q13586 344-442) (domain or fragment)",,,2,2
